Experimental data as given in patent US8894997B2.

Assays:
[1] = target: HA of A/Mexico/4108/2009 virus (influenza A/Mexico/4108/2009 (H1N1) virus)
[2] = target: 1918 HA displayed on virus-like particles, reconstituted 1918 virus or transfected mammalian cells (influenza A/South Carolina/1/18 (H1N1) virus)
[3] = target: HA of influenza A/Weiss/43 (H1N1) virus (influenza A/Weiss/43 (H1N1) virus)
[4] = target: HA of influenza A/USSR/92/77 (H1N1) virus (influenza A/USSR/92/77 (H1N1) virus)
[5] = target: Recombinant A/South Carolina/1/1918 virus HA (influenza A/South Carolina/1/18 (H1N1) virus)
[6] = target: 1918 HA displayed on virus-like particles, reconstituted 1918 virus or transfected mammalian cells (influenza A/South Carolina/1/18 (H1N1) virus); remark: listed apart in the source
[7] = target: HA of influenza A/Swine/Iowa/15/30 (H1N1) virus (influenza A/Swine/Iowa/15/30 (H1N1) virus)

Substance: Normal mouse serum (polyclonal serum or antibody)
- HAI, reciprocal titer of serum (reciprocal titer) [1]: < 10
- HAI, reciprocal titer of serum (reciprocal titer) [2]: < 10

Substance: mAb 1F1 (antibody)
- HAI, specific activity [1]: > 5 µg/mL
- Neut Ab, specific activity [1]: > 5 µg/mL
- HAI, specific activity [2]: 0.04 µg/mL
- specific neutralizing activity [3]: 1.8 µg/mL
- Specific HAI activity [4]: 0.16 µg/mL
- specific neutralizing activity [4]: 0.88 µg/mL
- Kd [5]: 5.4 nM
- koff [5]: 0.00017 s⁻¹
- kon [5]: 31000 M⁻¹ s⁻¹
- Specific HAI activity [6]: 0.08 µg/mL
- Specific HAI activity [7]: 0.04 µg/mL
